Several values for one entry are separate records, joined by “and”; a condition that tells them apart may be missing. Identical values can stand only once.
Legend:
[1] = molecular target: MtrR‐His6 (small protein MtrR with a C‐terminal His‐tag, heterologously expressed in Escherichia coli) (Methanosarcina mazei Gö1); assay: SEC; IMAC‐purified MtrR‐His6 on an Enrich SEC 70 column, detection at 214 nm, calibrated with a standard protein mixture; phosphate buffer (50 mM sodium phosphate, 300 mM NaCl, pH 8.0); peaks at 10 and 13 mL
[2] = molecular target: soluble domain of the MtrA subunit (M1 – S168), strep‐tagged, RED‐labeled (Methanosarcina mazei Gö1) (UniProt O59640); assay: MST; 20 nM RED‐labeled strep‐MtrA with MtrR‐His6 in 16 concentrations (calculated on monomeric molecular mass); standard capillaries, 100% excitation power, medium MST power; MO.AFFINITY analysis; two biological replicates
Sequence of UniProt O59640 (O59640 1-168): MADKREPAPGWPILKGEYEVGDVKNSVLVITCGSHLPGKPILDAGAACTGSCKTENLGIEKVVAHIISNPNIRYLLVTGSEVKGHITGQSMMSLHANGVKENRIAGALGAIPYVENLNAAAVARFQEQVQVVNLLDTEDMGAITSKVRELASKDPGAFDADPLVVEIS

stoichiometry N [1]: 2 and < 6
Kd [2]: 110 nM
Substance: MtrR‐His6 (small protein MtrR with a C‐terminal His‐tag, heterologously expressed in Escherichia coli) (natural protein)

— paper PMC13370731
